Assay results: IntAct's records for PubMed 12058072

B1: Serine/threonine-protein kinase GIN4 (Saccharomyces cerevisiae), Q12263 (parent)
chain: MAINGNSIPAIKDNTIGPWKLGETLGLGSTGKVQLARNGSTGQEAAVKVISKAVFNTGNVSGTSIVGSTTPDALPYGIEREIIIMKLLNHPNVLRLYDVWETNTDLYLVLEYAEKGELFNLLVERGPLPEHEAIRFFRQIIIGVSYCHALGIVHRDLKPENLLLDHKYNIKIADFGMAALETEGKLLETSCGSPHYAAPEIVSGIPYQGFASDVWSCGVILFALLTGRLPFDEEDGNIRTLLLKVQKGEFEMPSDDEISREAQDLIRKILTVDPERRIKTRDILKHPLLQKYPSIRDSKSIRGLPREDTYLTPLSESNSSIDATILQNLVILWHGRDPEGIKEKLREPGANAEKTLYALLYRFKCDTQKELIKQQQVKKRQSISSVSVSPSKKVSTTPQRRRNRESLISVTSSRKKPISFNKFTASSASSSNLTTPGSSKRLSKNFSSKKKLSTIVNQSSPTPASRNKRASVINVEKNQKRASIFSTTKKNKRSSRSIKRMSLIPSMKRESVTTKLMSTYAKLAEDDDWEYIEKETKRTSSNFATLIDEIFEYEKYEQIRKEKEELERKVREAKAREELERRRRKQEEKERARKLLEKEDLKRKQEELKKQIEIDISDLEQELSKHKEEKLDGNIRSISAPMENEEKNINHLEVDIDNILRRRNFSLQTRPVSRLDPGIMFSSPTEEVSPVEPKRTENERLTTEKKILETIRRSKFLGSSFNIDKELKLSKMEYPSIIAPQRLSEERVVSDSNDGYESLILPKDGNGVSQLKDSTATTAPVSDGRLRKISEIRVPQFTRKSRHFSESNKRLSVLSMYSTKESFTNLVDILKNGNLDVNNQQSQRIPTPRSADDSEFLFETVNEEAEYTGNSSNDERLYDVGDSTIKDKSALKLNFADRFNGSNEAKQTDNLHLPILPPLNGDNELRKQNSQEGDQAHPKIKSMIPESGSSSHTEKEEENEEKEEKKPEQHKQEEDQEKREKVVDDMEPPLNKSVQKIREKNAGSQAKDHSKDHLKEHKQDKNTAIGNGSFFRKFSKSSDKTMELYAKISAKQLFNGLEKLLRGWTQYGLKNIKSHPNNLTLTGKLSSDNIFSLRSTLFEVNIYPRGKMSVVQFKKVSGSFKAVKKLVNEVENVLNKEGVLQK
partner: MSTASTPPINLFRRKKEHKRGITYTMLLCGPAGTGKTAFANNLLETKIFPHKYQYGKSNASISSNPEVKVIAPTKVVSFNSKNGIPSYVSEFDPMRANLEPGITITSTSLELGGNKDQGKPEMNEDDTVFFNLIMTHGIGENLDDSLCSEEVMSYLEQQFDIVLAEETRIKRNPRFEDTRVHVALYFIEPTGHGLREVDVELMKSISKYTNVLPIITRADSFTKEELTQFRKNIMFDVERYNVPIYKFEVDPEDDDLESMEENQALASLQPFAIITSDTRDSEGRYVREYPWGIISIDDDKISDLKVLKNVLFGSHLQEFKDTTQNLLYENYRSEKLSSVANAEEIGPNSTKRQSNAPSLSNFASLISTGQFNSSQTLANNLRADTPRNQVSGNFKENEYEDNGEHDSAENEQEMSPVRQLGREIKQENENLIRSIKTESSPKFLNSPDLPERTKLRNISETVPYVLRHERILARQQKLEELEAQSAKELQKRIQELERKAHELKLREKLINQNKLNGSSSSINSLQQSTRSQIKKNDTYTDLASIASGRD

Variants of: B1
Conditions: with shs1_yeast SHS1, Q07657
For K48A, the “effect of a mutation on the interaction” value was “disrupting interaction”.
